Experiment [1] addresses anti-His single-chain antibody (scFv) artificial receptor displayed on 293.HissFv.rec cells. The experiment is described as follows: cell-based or functional assay.
For experiment [2], the target named is wild-type Ad5 fiber (adenovirus serotype 5 (Ad5)) (UniProt P11818). In words: antibody-mediated virus capture on 9E10-coated plates, read out by GFP expression in 293.HissFv.rec cells (FACS).
Experiment [3] concerns the target TSFLCmychis knobless fiber protein (adenovirus serotype 5 (Ad5); Moloney Murine Leukemia Virus) (UniProt P11818). The experiment is described as above.

As for “TSFLCmychis knobless fiber protein (from UniProt P11818 1-403; P03385 514-553)”, in experiment [1], the gene transfer (EGFP expression) by AdGFP-TSFLCmychis into 293.HissFv.rec cells in the presence of the anti-fiber knob antibody was over 10%. As to anti-Myc MoAb 9E10 (antibody), the percent functional virus bound (relative to binding to 1D6.14) was found to be 0.2% in experiment [2] and 2.3% in experiment [3].

The record behind these values is patent US20030082146A1.
